According to paper PMC10182654, “The pattern of histone H3 epigenetic posttranslational modifications is regulated by the VRK1 chromatin kinase” (Epigenetics & Chromatin, 2023):

Biological target: T1, GST-PCAF (aa 352–832) (human, UniProt Q92831 352-832)
T1 construct: PCAF (KAT2B), residues 352-832, fused to GST; Written GST-PCAF; source: bacterially expressed and purified
Test: pull-down; purified VRK1-His and GST-PCAF (aa 352–832) incubated in 20 mM Tris–HCl pH 7.5, 5 mM MgCl2, 0.5 mM DTT, 150 mM KCl at 37 °C for 45 min; Glutathione Sepharose 4B overnight at 4 °C; SDS-PAGE, Coomassie staining; dose-dependent
Details: both partners purified

T1 sequence (Q92831 352-832): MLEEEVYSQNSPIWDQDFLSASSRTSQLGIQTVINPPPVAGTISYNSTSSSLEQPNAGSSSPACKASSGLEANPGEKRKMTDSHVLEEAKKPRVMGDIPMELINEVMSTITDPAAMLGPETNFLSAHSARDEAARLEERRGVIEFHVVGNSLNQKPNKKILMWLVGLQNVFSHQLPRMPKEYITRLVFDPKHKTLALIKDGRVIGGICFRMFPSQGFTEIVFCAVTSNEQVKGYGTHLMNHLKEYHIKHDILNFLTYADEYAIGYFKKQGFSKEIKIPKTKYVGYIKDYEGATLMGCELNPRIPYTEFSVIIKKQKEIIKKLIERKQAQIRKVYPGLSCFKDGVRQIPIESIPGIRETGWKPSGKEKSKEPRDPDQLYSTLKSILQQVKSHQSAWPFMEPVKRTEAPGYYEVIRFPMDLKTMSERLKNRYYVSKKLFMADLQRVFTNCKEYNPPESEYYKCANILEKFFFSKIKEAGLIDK

binding result: binds
B1: VRK1-His (enzyme, human, UniProt Q99986 1-396, looked up)
chain: MPRVKAAQAGRQSSAKRHLAEQFAVGEIITDMAKKEWKVGLPIGQGGFGCIYLADMNSSESVGSDAPCVVKVEPSDNGPLFTELKFYQRAAKPEQIQKWIRTRKLKYLGVPKYWGSGLHDKNGKSYRFMIMDRFGSDLQKIYEANAKRFSRKTVLQLSLRILDILEYIHEHEYVHGDIKASNLLLNYKNPDQVYLVDYGLAYRYCPEGVHKEYKEDPKRCHDGTIEFTSIDAHNGVAPSRRGDLEILGYCMIQWLTGHLPWEDNLKDPKYVRDSKIRYRENIASLMDKCFPEKNKPGEIAKYMETVKLLDYTEKPLYENLRDILLQGLKAIGSKDDGKLDLSVVENGGLKAKTITKKRKKEIEESKEPGVEDTEWSNTQTEEAIQTRSRTRKRVQK
notes: VRK1 with a His tag, bacterially expressed and purified; Printed both as His-VRK1 (results) and VRK1-His (methods); the end of the tag cannot be told; also called His-VRK1; source: bacterially expressed and purified
